To fix the notation:
B1: His6–Pos1 (natural protein, S. pombe, UniProt O13743 1-269, looked up)
chain: MAFSPANSFLINKSICESKEVEPLEANLFGKLHNKLLICKAKKENLEKKLAYQMMYSKLLKSLPKLSSLEENKLTKLKAPIEDMENTKKELEEIRKQSTETELRYLKSLSNTLSFGTLSLSNEINKVGPSASFMLKEVHDSVQVLEQRLEKMGLIEKPSESSESSIYSILASLKHTNDSLQKKELSPHEIAESPSSHSTSPMGRNVDTETLSFLLIDWQRLCAEQNTFLRDITNNMSSSVPQDVLSQLRQFFFRSELLSDKLSNLCSES
notes: Pos1, S. pombe; also called His6-tagged Pos1; source: Rosetta2(DE3)pLysS bacteria (pETDuet); alone: purified on nickel magnetic beads; not shown: His6, N-terminal, kept
B2: FLAG–Spa2(200–360) (domain or fragment, S. pombe, UniProt O42869 200-360, looked up)
chain: NTVQANNSSTSSLSQGAQTGIDSSSNYLSRIEMLESSLAKSNSLLDSSKSEMEALKAKSISDATKHKNEIFQLEEKLHEASHEAEISIKKLNDAENRIKELENNPTLSFNPELEKNLKLMQELIVAESSKTQHIVELESCIDSLKAETERWKKVAINAKSA
notes: also called Spa2(200–360)–FLAG

Assay [1] addresses B2. The assay can be described thus: pull-down; co-purification: His6–Pos1 and FLAG–Spa2(200–360) co-produced in bacteria with a dual expression system, purified on DYKDDDDK Fab-Trap agarose, eluted with 3×FLAG peptide; SDS-PAGE, Coomassie Blue. Particulars: partners not purified.
The target of assay [2] is B1. Description: SEC; Superose 6 10/300 GL, 0.5 ml/min, 4°C, 10 mM Tris-HCl pH 7.5, 150 mM NaCl, 0.5 mM EDTA; each protein alone or the co-purified complex; sizes estimated from calibration standards. The settings on record: both partners purified.
Assay [3] addresses T1, MBP–Pos1 (S. pombe, UniProt O13743 1-269).
T1 construct: Pos1, S. pombe; source: Rosetta2(DE3)pLysS bacteria, purified on amylose beads, eluted with 10 mM maltose; not shown: MBP, N-terminal, kept
T1 sequence (looked up): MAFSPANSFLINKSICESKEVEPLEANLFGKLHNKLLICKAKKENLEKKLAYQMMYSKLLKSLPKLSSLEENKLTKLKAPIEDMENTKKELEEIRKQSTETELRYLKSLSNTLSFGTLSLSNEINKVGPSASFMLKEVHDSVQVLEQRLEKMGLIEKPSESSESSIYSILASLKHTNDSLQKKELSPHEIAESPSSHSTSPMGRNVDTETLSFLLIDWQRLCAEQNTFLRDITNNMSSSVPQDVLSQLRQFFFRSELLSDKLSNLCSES
The assay can be described thus: pull-down; GST proteins left on beads, incubated with eluted MBP proteins in GST buffer for 40 min at 4°C; washed three times; SDS-PAGE, Coomassie Blue. The settings on record: both partners purified.

For the molecule B1, the stoichiometry N (usually the number of molecules, sites or subunits per partner or assembly) in assay [1] is around 1. As for B2, the binding result in assay [2] is “binds”.

B3: GST–Spa2(305–360) (domain or fragment, S. pombe, UniProt O42869 305-360, looked up)
chain: TLSFNPELEKNLKLMQELIVAESSKTQHIVELESCIDSLKAETERWKKVAINAKSA
notes: not shown: GST, N-terminal, kept
Take B3: the binding result in assay [3] is “binds”.
